Results as given in patent US20110135647.

Test system: T1, pp1-18 peptide (cell-permeable peptide, RRRRRRRRRRR-G-MEGISNFKTPSKLSEKKK)
T1 sequence: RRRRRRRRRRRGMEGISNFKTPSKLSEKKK

CDK1-cyclin B1 recombinant protein complex (New England Biolabs)
phosphorylation of recombinant PBK/TOPK by CDK1-cyclin B1 (in vitro kinase assay with peptide added): the phosphorylation of recombinant PBK/TOPK protein by CDK1-cyclin B1 recombinant proteins was diminished in dose-dependent manner by addition of the pp 1-18 peptide
